Source: patent publication US20260250404A1

Biological target: human FcγRIa on the cell surface (transfected CHO-S cells, M0/M1 macrophages, hMDM, FcγRI effector reporter cells) (human) (UniProt P12314)
Test: flow cytometry on CHO-S cells transiently expressing human FcγRIa, PE goat anti-human IgG F(ab')2, % PE+ cells

Chain of human FcγRIa on the cell surface (transfected CHO-S cells, M0/M1 macrophages, hMDM, FcγRI effector reporter cells) (human) (P12314 16-374): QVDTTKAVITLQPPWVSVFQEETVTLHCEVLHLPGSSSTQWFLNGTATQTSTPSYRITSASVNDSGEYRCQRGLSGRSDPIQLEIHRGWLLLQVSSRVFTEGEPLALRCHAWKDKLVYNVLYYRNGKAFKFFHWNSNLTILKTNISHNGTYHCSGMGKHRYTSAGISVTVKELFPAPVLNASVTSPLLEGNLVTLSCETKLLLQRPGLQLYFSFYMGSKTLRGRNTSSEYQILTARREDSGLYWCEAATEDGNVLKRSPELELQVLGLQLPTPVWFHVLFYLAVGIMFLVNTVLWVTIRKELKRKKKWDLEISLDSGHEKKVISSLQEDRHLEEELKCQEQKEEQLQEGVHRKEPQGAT

EC50 (read off the curve): 0.3 µg/mL
Substance: cemiplimab (antibody)
